Consider 3 molecules from patent US20050267016A1, “CD-10 activated prodrug compounds” (priority 2001, published 2005).

The nature of data set [1]: Metabolism and clearance in normal mice (plasma and urine, LC MS/MS). It counts as in vivo. The conditions noted are these: mouse, in vivo; for dose excreted: iv, 117 mg/kg. As for the experimental part: The metabolism and clearance of Suc-Ile-Ala-Leu-Dox was studied in normal mice. The mice were administered Suc-Ile-Ala-Leu-Dox at a single intravenous bolus dose of 117 mg/kg. Plasma samples were obtained at 1 and 4 hours. Plasma samples of 100 μl were transferred to microcentrifuge tubes (1.5 mL) and an internal standard of daunorubicin (20 μL at 0.5 mg/ml) was added together with acetonitrile (400 μl). The tubes were capped and briefly vortexed followed by centrifugation at 14,000 rpm. 420 μl from each tube was removed and dried in vacuo. Each sample was reconstituted in 65 μl 20 mM aqueous ammonium formate pH 4.5 buffer (AF) containing acetonitrile (20%) prior to analysis by reverse phase liquid chromatography in combination with tandem mass spectrometry (LC MS/MS).
Urine was collected at 2 and 24 hours post administration from pairs of mice in metabolic cages. Urine samples were diluted with AF containing acetonitrile (20%) to give a target analyte concentration within the practical range of the LC MS/MS assay. 30 μl of each diluted sample was placed in an Eppendorf tube (1.5 ml) and an internal standard of daunorubicin (20 μL at 0.5 mg/ml) was added together with 50 μl of AF containing acetonitrile (20%). Each sample was then analyzed by LC MS/MS.
An Agilent HP1100 HPLC with DAD detector and Chemstation software was coupled to a PE Sciex API 365 mass spectrometer with an electrospray ion source. HPLC was performed on a TSK-Gel Super ODS, […], 4.6×50 mm (TosoHaas) reversed phase column equipped with a […] C18 guard disc (Higgins Analytical) and stainless steel frit (Upchurch Scientific). Chromatography was performed at room temperature. The flow rate was 0.5 ml/min. Injection volume was 50 μL. Gradient elution was performed using a mobile phase of 20 mM aqueous AF pH 4.5 buffer with increasing amounts of acetonitrile. The API 365 was operated at 365° C. in a multiple reaction monitoring mode, set to monitor specific analyte parent-daughter ion pairs. Integration of chromatograms was performed by MacQuant software (PE Sciex) and quantitation of each analyte obtained by comparison to previously obtained calibration curves. Daunorubicin was used as an internal standard in all cases.
For the calculation of percent of administered dose, plasma volume was estimated to be 40% of blood volume, which was calculated as 7% of animal's body weight. At 2 and 24 hours the parent compound was detected in urine at 3.9% and 15.0% of the administered dose, showing that the kidney is a major organ of excretion for the prodrug (FIG. 17).
Plasma samples were obtained at 1 and 4 hours from separate mice. Urine was collected at 2 and 24 hours post administration from pairs of mice in metabolic cages. The plasma and urine samples were prepared and analyzed as described in Example 17.

For another data set, the system named is BALL-1 cells (CD10neg). Kind of data set: cells. To be noted: 24 h. As for the experimental part:
(§1) Suspension cells, BALL-1, Ramos and Namalwa cells were cultured in RPMI media containing 10% heat inactivated fetal calf serum (FCS). On the day of the study, the cells were collected, washed and resuspended at a concentration of 0.5×10^6 cells/ml in RPMI containing 10% FCS. 100 µl of cell suspension was added to 96 well plates. […] Finally 10 μl of a 100 μCi/ml ^3H-thymidine was added per well and the plates were incubated for 24 hours. The plates were harvested using a 96 well Harvester (Packard Instruments) and counted on a Packard Top Count counter. Four parameter logistic curves were fitted to the ^3H-thymidine incorporation as a function of drug molarity using Prism software to determine IC50 values.
(§2) The effect of two known inhibitors of CD10 on prodrug activity in Ramos, LNCaP and Ball-1 cells was evaluated. The IC50 of Suc-βAla-Ile-Ala-Leu-Dox was determined in the presence of increasing concentration of the CD10 inhibitors, phosphoramidon and thiorphan.

The subject of a further data set is Ramos cells (CD10pos). Kind of data set: cells. The conditions noted are these: 24 h. As for the experimental part:
as §1, §2

Consider `COc1cccc2c1C(=O)c1c(O)c3c(c(O)c1C2=O)C[C@@](O)(C(=O)CO)C[C@@H]3O[C@H]1C[C@H](NC(=O)[C@H](CC(C)C)NC(=O)[C@H](C)N)[C@H](O)[C@H](C)O1` [Ala-Leu-Dox], for which, in data set [1], the “Plasma (% adm. dose) 1 hr” value came out at 0.00 % adm. dose and the “Plasma (% adm. dose) 4 hr” value is 0.00 % adm. dose. Besides, the dose excreted in data set [1] (Urine (% adm. dose) 2 hr) turned out to be 0%. Further, the dose excreted in data set [1] (Urine (% adm. dose) 24 hr) is 0%.

With `COc1cccc2c1C(=O)c1c(O)c3c(c(O)c1C2=O)C[C@@](O)(C(=O)CO)C[C@@H]3O[C@H]1C[C@H](NC(=O)[C@@H](N)CC(C)C)[C@H](O)[C@H](C)O1` [Leu-Dox], the values for the dose excreted in data set [1] (Urine (% adm. dose) 2 hr) and in data set [1] (Urine (% adm. dose) 24 hr) were 1.17% and 2.25%, respectively.

In general, IC50 refers to the concentration that inhibits the measured activity by half. Consider `COc1cccc2c1C(=O)c1c(O)c3c(c(O)c1C2=O)C[C@@](O)(C(=O)CO)C[C@@H]3O[C@H]1C[C@H](NC(=O)[C@H](CC(C)C)NC(=O)[C@H](Cc2ccc(O)cc2)NC(=O)[C@H](CC(C)C)NC(=O)CCC(=O)O)[C@H](O)[C@H](C)O1` [Suc-Leu-Tyr-Leu-Dox], for which the concentration for half-maximal inhibition (IC50) in the data set on BALL-1 cells (CD10neg) came to 17 µM; in the data set with Ramos cells (CD10pos), 20 µM.
